Results from the supplement of paper PMC9112550, “Optimization of the antimicrobial peptide Bac7 by deep mutational scanning” (BMC Biology, 2022).

System: Escherichia coli TOP10
Experiment: shrunken log2 fold change of peptide-encoding DNA abundance (4.5 h post-induction vs induction); higher = less antimicrobial activity (less host growth inhibition)
Settings: time post-induction: 4.5 h; library: site-saturation at positions 5, 18, 19, 20
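Further: peptides expressed intracellularly from a pBAD plasmid library in pooled LB shake-flask culture, induced with 0.3% L-arabinose, DNA abundance read by NGS, three biological replicates, DESeq2 with apeglm shrinkage.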

Sequence | shrunken log2 fold change
RRIRPRPPRLPRPRPRPRSAPRP | 0.497
RRIRLRPPRLPRPRPRPFEDPRP | -0.193
RRIRERPPRLPRPRPRPTYAPRP | -0.0017
RRIRLRPPRLPRPRPRPVTNPRP | -0.0302
RRIRRRPPRLPRPRPRPLTSPRP | 0.233
RRIRSRPPRLPRPRPRPVRNPRP | 0.0299
RRIRCRPPRLPRPRPRPNGNPRP | -0.288
RRIRFRPPRLPRPRPRPKDLPRP | 0.0796
RRIRFRPPRLPRPRPRPKYVPRP | -0.594
RRIRDRPPRLPRPRPRPHRDPRP | -0.0968
RRIRFRPPRLPRPRPRPFEAPRP | -0.105
RRIRSRPPRLPRPRPRPMHYPRP | -0.224
RRIRERPPRLPRPRPRPAPNPRP | 0.258
RRIRIRPPRLPRPRPRPIYTPRP | -0.728
RRIRLRPPRLPRPRPRPCITPRP | -0.275
RRIRNRPPRLPRPRPRPAMHPRP | -0.273
RRIRGRPPRLPRPRPRPCHTPRP | -0.0963
RRIRMRPPRLPRPRPRPVIFPRP | -0.237
RRIRCRPPRLPRPRPRPMGQPRP | 0.00321
RRIRSRPPRLPRPRPRPPNPPRP | 0.273
RRIRNRPPRLPRPRPRPLRLPRP | 0.357
RRIRVRPPRLPRPRPRPIFCPRP | 0.078
RRIRGRPPRLPRPRPRPQSMPRP | 0.276
RRIRNRPPRLPRPRPRPTSKPRP | -0.0758
RRIRKRPPRLPRPRPRPLDWPRP | 0.474

Sequence | shrunken log2 fold change
RRIRERPPRLPRPRPRPHFEPRP | -0.211
RRIRTRPPRLPRPRPRPASKPRP | -0.05
RRIRTRPPRLPRPRPRPCKNPRP | -0.33
RRIRARPPRLPRPRPRPMNIPRP | -0.583
RRIRYRPPRLPRPRPRPRCYPRP | 0.0145
RRIRHRPPRLPRPRPRPMPIPRP | 0.113
RRIRRRPPRLPRPRPRPATSPRP | 0.0892
RRIRERPPRLPRPRPRPEWFPRP | 0.0631
RRIRHRPPRLPRPRPRPGREPRP | 0.0529
RRIRWRPPRLPRPRPRPIKIPRP | -0.0625
RRIRLRPPRLPRPRPRPFPYPRP | 0.015
RRIRIRPPRLPRPRPRPPENPRP | 0.0392
RRIRERPPRLPRPRPRPWPIPRP | -0.679
RRIRGRPPRLPRPRPRPASHPRP | 0.252
RRIRSRPPRLPRPRPRPTMDPRP | -0.262
RRIRCRPPRLPRPRPRPERDPRP | 0.325
RRIRVRPPRLPRPRPRPRMKPRP | -0.167
RRIRLRPPRLPRPRPRPPSMPRP | -0.127
RRIRKRPPRLPRPRPRPGNQPRP | 0.0471
RRIRFRPPRLPRPRPRPCPDPRP | -0.45
RRIRCRPPRLPRPRPRPAYDPRP | 0.0664
RRIRGRPPRLPRPRPRPQVSPRP | 0.0928
RRIRMRPPRLPRPRPRPIVTPRP | -0.00781
RRIRARPPRLPRPRPRPFQQPRP | 0.00604
RRIRSRPPRLPRPRPRPFDQPRP | -0.256

Sequence | shrunken log2 fold change
RRIRQRPPRLPRPRPRPLMTPRP | 0.0563
RRIRPRPPRLPRPRPRPMNYPRP | -0.736
RRIRCRPPRLPRPRPRPGFGPRP | 0.399
RRIRARPPRLPRPRPRPEVQPRP | 0.76
RRIRVRPPRLPRPRPRPNMTPRP | -0.256
RRIRHRPPRLPRPRPRPRGIPRP | -0.0565
RRIRARPPRLPRPRPRPSDEPRP | 0.324
RRIRSRPPRLPRPRPRPDHEPRP | -0.0462
RRIRHRPPRLPRPRPRPGGRPRP | 0.0167
RRIRWRPPRLPRPRPRPYAVPRP | 0.0097
RRIRWRPPRLPRPRPRPKFIPRP | -0.17
RRIRVRPPRLPRPRPRPKGNPRP | 0.143
RRIRNRPPRLPRPRPRPPPCPRP | 0.756
RRIRNRPPRLPRPRPRPTYEPRP | -0.172
RRIRARPPRLPRPRPRPEQLPRP | 1.47
RRIRKRPPRLPRPRPRPMHVPRP | -0.0434
RRIRDRPPRLPRPRPRPCNQPRP | -0.285
RRIRNRPPRLPRPRPRPRWKPRP | -0.109
RRIRCRPPRLPRPRPRPCMEPRP | -0.681
RRIRVRPPRLPRPRPRPYVWPRP | -0.567
RRIRSRPPRLPRPRPRPTPTPRP | 0.676
RRIRQRPPRLPRPRPRPKYIPRP | -1.11
RRIRSRPPRLPRPRPRPLIPPRP | -0.324
RRIRSRPPRLPRPRPRPFAMPRP | -0.0258
RRIRSRPPRLPRPRPRPGVAPRP | 0.42

Sequence | shrunken log2 fold change
RRIRLRPPRLPRPRPRPLMSPRP | -0.0608
RRIRARPPRLPRPRPRPYVRPRP | -0.377
RRIRARPPRLPRPRPRPVYDPRP | 0.0386
RRIRIRPPRLPRPRPRPVFSPRP | -0.626
RRIRWRPPRLPRPRPRPTNMPRP | -0.154
RRIRYRPPRLPRPRPRPEIHPRP | -0.224
RRIRVRPPRLPRPRPRPHSRPRP | 0.0978
RRIRRRPPRLPRPRPRPCHFPRP | -0.181
RRIRPRPPRLPRPRPRPMPLPRP | -0.0538
RRIRIRPPRLPRPRPRPQADPRP | -0.0941
RRIRQRPPRLPRPRPRPLAKPRP | -0.041
RRIRPRPPRLPRPRPRPMVFPRP | -0.166
RRIRMRPPRLPRPRPRPDMVPRP | 1.9
RRIRHRPPRLPRPRPRPGKPPRP | -0.00366
RRIRKRPPRLPRPRPRPMEGPRP | -0.01
RRIRCRPPRLPRPRPRPDYFPRP | -0.248
RRIRVRPPRLPRPRPRPQMLPRP | -0.158
RRIRNRPPRLPRPRPRPHDVPRP | -0.0113
RRIRKRPPRLPRPRPRPDPLPRP | 0.282
RRIRWRPPRLPRPRPRPQQGPRP | 0.342
RRIRIRPPRLPRPRPRPCHSPRP | 0.00888
RRIRVRPPRLPRPRPRPRFHPRP | -0.264
RRIRNRPPRLPRPRPRPPEKPRP | 0.0323
RRIRWRPPRLPRPRPRPALWPRP | 0.53
RRIRQRPPRLPRPRPRPFSSPRP | -0.0951

Sequence | shrunken log2 fold change
RRIRKRPPRLPRPRPRPVYNPRP | -0.0144
RRIRERPPRLPRPRPRPREVPRP | 0.13
RRIRSRPPRLPRPRPRPRVFPRP | 0.151
RRIRWRPPRLPRPRPRPAMTPRP | 0.299
RRIRRRPPRLPRPRPRPEYGPRP | -0.0277
RRIRDRPPRLPRPRPRPMWWPRP | -0.0122
RRIRRRPPRLPRPRPRPPPWPRP | 0.868
RRIRWRPPRLPRPRPRPFVGPRP | -0.166
RRIRPRPPRLPRPRPRPWTKPRP | 0.0459
RRIRLRPPRLPRPRPRPDGSPRP | 0.0129
RRIRLRPPRLPRPRPRPSEQPRP | -0.153
RRIRSRPPRLPRPRPRPDSNPRP | -0.529
RRIRNRPPRLPRPRPRPAVDPRP | 0.0455
RRIRDRPPRLPRPRPRPRYMPRP | -0.233
RRIRVRPPRLPRPRPRPWCIPRP | -0.165
RRIRARPPRLPRPRPRPDRMPRP | 0.0124
RRIRGRPPRLPRPRPRPRMRPRP | 1.38
RRIRKRPPRLPRPRPRPHRNPRP | -0.167
RRIRWRPPRLPRPRPRPLERPRP | -0.148
RRIRQRPPRLPRPRPRPNEQPRP | 0.0394
RRIRWRPPRLPRPRPRPDAGPRP | 0.485
RRIRERPPRLPRPRPRPRQAPRP | 0.0291
RRIRWRPPRLPRPRPRPDKKPRP | -0.0507
RRIRYRPPRLPRPRPRPWGKPRP | -0.461
RRIRARPPRLPRPRPRPQKYPRP | -0.363

Sequence | shrunken log2 fold change
RRIRARPPRLPRPRPRPLPTPRP | 0.771
RRIRFRPPRLPRPRPRPDQGPRP | -0.167
RRIRSRPPRLPRPRPRPLNMPRP | -0.316
RRIRPRPPRLPRPRPRPRSMPRP | 0.0858
RRIRLRPPRLPRPRPRPCPNPRP | 0.0236
RRIRGRPPRLPRPRPRPNGDPRP | 0.115
RRIRSRPPRLPRPRPRPAMAPRP | 1.64
RRIRNRPPRLPRPRPRPKTVPRP | 0.0807
RRIRPRPPRLPRPRPRPNQIPRP | 0.0623
RRIRKRPPRLPRPRPRPFWHPRP | 0.00192
RRIRWRPPRLPRPRPRPMGIPRP | 0.0704
RRIRRRPPRLPRPRPRPPCVPRP | 1.02
RRIRERPPRLPRPRPRPMCVPRP | -0.461
RRIRCRPPRLPRPRPRPSDVPRP | 0.00436
RRIRQRPPRLPRPRPRPVYCPRP | -0.155
RRIRERPPRLPRPRPRPHYVPRP | -0.0222
RRIRMRPPRLPRPRPRPQKAPRP | 0.0203
RRIRCRPPRLPRPRPRPWSTPRP | -0.148
RRIRWRPPRLPRPRPRPAVKPRP | -0.197
RRIRRRPPRLPRPRPRPAHWPRP | 0.672
RRIRPRPPRLPRPRPRPLDTPRP | 1
RRIRKRPPRLPRPRPRPQKHPRP | 0.224
RRIRRRPPRLPRPRPRPRPYPRP | 1.17
RRIRWRPPRLPRPRPRPCQIPRP | -0.0592
RRIRFRPPRLPRPRPRPDHCPRP | -0.0831
